Results taken from article PMC4096160 (Nature structural & molecular biology, 2013).

Experiments:
[1] = biological target: hSTAU1^55(R)Δ(SSM-‘RBD’5)-FLAG (human); experiment: co-IP
hSTAU1^55-HA3 (human) = hSTAU1^55-HA3 (human) (UniProt O95793); experiment: co-IP
SEC = biological target: the molecule itself; experiment: SEC
AUC = biological target: the molecule itself; experiment: AUC

Sequence of hSTAU1^55-HA3 (human) (O95793 82-577): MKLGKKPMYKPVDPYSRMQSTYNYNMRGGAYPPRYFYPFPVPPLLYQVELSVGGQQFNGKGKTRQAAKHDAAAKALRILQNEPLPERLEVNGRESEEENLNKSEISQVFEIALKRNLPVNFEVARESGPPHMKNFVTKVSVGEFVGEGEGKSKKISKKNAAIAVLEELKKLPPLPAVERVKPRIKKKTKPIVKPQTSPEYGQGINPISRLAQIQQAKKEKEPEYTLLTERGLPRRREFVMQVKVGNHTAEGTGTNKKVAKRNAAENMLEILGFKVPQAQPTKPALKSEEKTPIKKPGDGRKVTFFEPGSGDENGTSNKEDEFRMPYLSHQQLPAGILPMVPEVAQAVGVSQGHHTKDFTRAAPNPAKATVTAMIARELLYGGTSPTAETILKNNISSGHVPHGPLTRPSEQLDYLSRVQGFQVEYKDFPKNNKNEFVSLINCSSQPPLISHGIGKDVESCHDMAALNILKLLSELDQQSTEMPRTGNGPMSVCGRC
Sequence of hSTAU1^55-HA3 (O95793 82-577): as above

Molecule	level of co-immunoprecipitation as percent of that with WT or Δ(C-Term) [1] [%]	stoichiometry N (SEC)	also measured
hSTAU1^55-HA3 (from UniProt O95793-2 1-496) (natural protein)	10	–	–
hSTAU1^55(R)Δ(SSM-‘RBD’5)-FLAG (domain or fragment)	–	–	level of co-immunoprecipitation as percent of that of WT or Δ(C-Term) (hSTAU1^55-HA3 (human)): 10%
cellular hUPF1 (natural protein) MSVEAYGPSSQTLTFLDTEEAELLGADTQGSEFEFTDFTLPSQTQTPPGGPGGPGGGGAGGPGGAGAGAAAGQLDAQVGPEGILQNGAVDDSVAKTSQLLAELNFEEDEEDTYYTKDLPIHACSYCGIHDPACVVYCNTSKKWFCNGRGNTSGSHIVNHLVRAKCKEVTLHKDGPLGETVLECYNCGCRNVFLLGFIPAKADSVVVLLCRQPCASQSSLKDINWDSSQWQPLIQDRCFLSWLVKIPSEQEQLRARQITAQQINKLEELWKENPSATLEDLEKPGVDEEPQHVLLRYEDAYQYQNIFGPLVKLEADYDKKLKESQTQDNITVRWDLGLNKKRIAYFTLPKTDSGNEDLVIIWLRDMRLMQGDEICLRYKGDLAPLWKGIGHVIKVPDNYGDEIAIELRSSVGAPVEVTHNFQVDFVWKSTSFDRMQSALKTFAVDETSVSGYIYHKLLGHEVEDVIIKCQLPKRFTAQGLPDLNHSQVYAVKTVLQRPLSLIQGPPGTGKTVTSATIVYHLARQGNGPVLVCAPSNIAVDQLTEKIHQTGLKVVRLCAKSREAIDSPVSFLALHNQIRNMDSMPELQKLQQLKDETGELSSADEKRYRALKRTAERELLMNADVICCTCVGAGDPRLAKMQFRSILIDESTQATEPECMVPVVLGAKQLILVGDHCQLGPVVMCKKAAKAGLSQSLFERLVVLGIRPIRLQVQYRMHPALSAFPSNIFYEGSLQNGVTAADRVKKGFDFQWPQPDKPMFFYVTQGQEEIASSGTSYLNRTEAANVEKITTKLLKAGAKPDQIGIITPYEGQRSYLVQYMQFSGSLHTKLYQEVEIASVDAFQGREKDFIILSCVRANEHQGIGFLNDPRRLNVALTRARYGVIIVGNPKALSKQPLWNHLLNYYKEQKVLVEGPLNNLRESLMQFSKPRKLVNTINPGARFMTTAMYDAREAIIPGSVYDRSSQGRPSSMYFQTHDQIGMISAGPSHVAAMNIPIPFNLVMPPMPPPGYFGQANGPAAGRGTPKGKTGRGGRQKNRFGLPGPSQTNLPNSQASQDVASQPFSQGALTQGYISMSQPSQMSQPGLSQPELSQDSYLGDEFKSQIDVALSQDSTYQGERAYQHGGVTGLSQY	10	–	–
hSTAU1 SSM-‘RBD’5 (hSTAU1 amino acids 367–476) (domain or fragment) KATVTAMIARELLYGGTSPTAETILKNNISSGHVPHGPLTRPSEQLDYLSRVQGFQVEYKDFPKNNKNEFVSLINCSSQPPLISHGIGKDVESCHDMAALNILKLLSELD	–	2	Kd (AUC): 79 ± 9 µM
hSTAU1-‘RBD’2-RBD3 (amino acids 43–173) (domain or fragment) PLLYQVELSVGGQQFNGKGKTRQAAKHDAAAKALRILQNEPLPERLEVNGRESEEENLNKSEISQVFEIALKRNLPVNFEVARESGPPHMKNFVTKVSVGEFVGEGEGKSKKISKKNAAIAVLEELKKLPP	–	2	–
